Measured values as given in US11459387B2, “Anti-CD147 antibody” (DAIICHI SANKYO COMPANY, LIMITED, priority 2017, dated 2022).

Tests used:
[1] = test system: human peripheral blood mononuclear cells; assay: Cytokine release assay using human peripheral blood; assay type: cell-based; settings: 6 donors
Text: In some antibodies such as OKT3 and TGN1412, administration of the therapeutic antibodies causes an increase in cytokines in the blood by activating immune cells, thereby causing serious cytokine release syndrome (Gaston, R., Kidney International, 1991, 141-148; Suntharalingam, G., et al., N. Engl. J. Med. 2006, 1018-1028). It has been reported that some CD147 antibodies act on immune cells, having an action of increasing production of interferon gamma or interleukin-4 (Hu, J., et al., J. Cell. Mol. Med., 2010, 2132-2143). The toxicity of antibody drugs due to cytokine release syndrome can be predicted by a cytokine release assay using peripheral blood (Vessillier, S. et al., J. Immunolol. Methods, 2015, 43-52).

[2] = test system: human liver cell line HepG2; assay: HepG2 liver cancer model in NOD-scid mice; assay type: in vivo; settings: qD1x9 po, n=5; for Average tumor volume: NOD-scid mice
Procedure: 5×10^6 cells of the human liver cell line HepG2 were suspended in PBS containing 50% Matrigel (Corning Inc., Cat. 354234), and the suspension was inoculated subcutaneously into the axilla of 4 week-old female NOD-scid mice (NOD. CB17-Prkdc/J, purchased from CHARLES RIVER LABORATORIES JAPAN, INC). […] As a control drug, sorafenib (Nexavar tablets 200 mg, Bayer AG), which is a therapeutic agent for liver cancer, was dissolved in a PEG-35 castor oil (Cremophor EL, NACALAI TESQUE, INC., Cat. 09727-14) ethanol solvent according to the reference (Chang et. al., Cancer Chem. Thera. Pharm., 2007) attached to Nexavar tablets, and the solution was orally administered to cancer-bearing mice at 30 mg/kg or 90 mg/kg 9, 10, 11, 12, 13, 16, 17, and 18 days after the inoculation (n=5). The major axis and the minor axis of the inoculated tumor were measured twice a week using an electronic digital caliper (available from MITUTOYO CORPORATION) to calculate the tumor volume by the following formula. Tumor volume (mm^3)=½×minor axis (mm)×minor axis (mm)×major axis (mm)

[3] = test system: human pancreatic line MIA PaCa-2; assay: CDC activity with rabbit complement, CellTiter-Glo; assay type: cell-based; settings: antibody 10 μg/ml; rabbit complement 7.5%; 3 hours
Procedure: Complement-dependent cytotoxicity (CDC) activity can be evaluated by measuring cell death caused when complement contained in blood, an antibody and target cells are brought into contact. The CDC activity of the anti-human CD147 antibody of the present invention is measured as follows. The complement-dependent cytotoxicity activity (CDC activity) of the anti-human CD147 antibody is evaluated using human pancreatic cell line MIA PaCa-2 as target cells. Commercially available rabbit complement (Low Tox-M Rabbit Complement, […] LABORATORIES LIMITED, Cat. CL3051) is used as the complement. […] Target cells are treated with the antibody to be evaluated and the negative control antibody at concentrations of 0, 0.1, 1 or 10 μg/ml for 1 hour at 4° C., the rabbit complement is added in such a manner that the final concentration is 7.5%, the resultant mixture is heated at 37° C. in the presence of 5% CO2 for 3 hours, and then intracellular ATP contained in living cells is measured using the CellTiter-Glo Lumimescent Cell Viability Assay (Promega, Cat. G7572). Luminescent signals obtained using the CellTiter-Glo Lumimescent Cell Viability Assay are quantitatively determined using an EnVision 2104 Multilabel Reader (Perkin Elmer). The measurement is performed three times and the average value and the standard deviation are calculated. […]

[4] = test system: human pancreatic line PANC-1; assay: Antibody screening by in-vivo antitumor efficacy, PANC-1 xenograft in NOD-scid mice
Procedure: 1×10^7 cells of human pancreatic line PANC-1 were suspended in PBS, and the suspension was inoculated subcutaneously into the axilla of NOD-scid mice (CHARLES RIVER LABORATORIES JAPAN, INC., NOD. CB17-Prkdc/J). […] The major axis and the minor axis of the inoculated tumor were measured twice a week using an electronic digital caliper (available from MITUTOYO CORPORATION) to calculate the tumor volume by the following formula. Tumor volume (mm^3)=½×minor axis (mm)×minor axis (mm)×major axis (mm)

[5] = test system: human pancreatic line BxPC-3; assay: SMAD4-negative BxPC-3 pancreatic cancer-bearing model in BALB/c-nu mice; assay type: in vivo; settings: antibody 10 mg/kg ip 8, 15 and 22 days after the inoculation; BALB/c-nu mice
Text: The transcription factor, SMAD4, is known as one of the molecules important for activation of SMAD signaling (Zang, et al., Current Biology, 270-276, 1997). It is known that SMAD signaling is partially impaired due to genetic defects of SMAD4 in some pancreatic cancers (Hahn, et al., Science, 350-353, 1996). […] 2.5×10^6 cells of human pancreatic line BxPC-3 (ATCC, Cat. CRL-1687) were suspended in PBS containing […] (Corning Inc., Cat. 354234), and the suspension was inoculated subcutaneously into the axilla of 6 week-old female BALB/c-nu mouse (CAnN. Cg-Foxn1nu/CrlCrlj, purchased from CHARLES RIVER LABORATORIES JAPAN, INC). […] As a control drug, gemcitabine (Eli Lilly Japan K.K., Gemzar®) that is a therapeutic agent for pancreatic cancer was administered to mice bearing tumor via the tail vein at 200 mg/kg 8, 15, 22 days after the inoculation (n=5). The major axis and the minor axis of the inoculated tumor were measured twice a week using an electronic digital caliper (available from MITUTOYO CORPORATION) to calculate the tumor volume by the following formula. Tumor volume (mm^3)=½×minor axis (mm)×minor axis (mm)×major axis (mm)

[6] = test system: human pancreatic line MIA PaCa-2; assay: ADCC activity, 51Cr release, human PBMC effector cells; assay type: cell-based; settings: antibody 0.5 or 5 μg/ml; MIA PaCa-2 target cells
Procedure: Antibody-dependent cellular cytotoxicity (ADCC) activity can be measured by a ^51Cr release assay method, which measures cell death caused when immune cells having effector activity, an antibody and ^51Cr-labeled target cells are brought into contact. The ADCC activity of the anti-human CD147 antibody of the present invention is measured as follows. Regarding the ADCC activity of the anti-human CD147 antibody, human peripheral blood mononuclear cells (PBMC) are used as effector cells, and a CD147-positive human cancer cell line (for example, pancreatic cancer cell line MIA PaCa-2) is used as ADCC target cells. Cancer cells labeled with a radioisotope, ^51Cr, and the antibody to be evaluated are treated at a concentration of 0.5 or 5 μg/ml at 4° C. for 30 minutes, PBMC separated from human peripheral blood is added at 20 times the proportion of cancer cells, and then cells are cultured for 4 hours at 37° C. in the presence of 5% CO2. […] The measured value of ^51Cr released from ^51Cr-labeled cancer cells treated with Triton-100 is designated as a “Maximum release value” and the measured value of ^51Cr released from ^51Cr-labeled cancer cells treated with antibody in the absence of PBMC is designated as a “Spontaneous release value”. With these values, % Specific release is calculated from the following formula. […]

anti-human CD3 antibody (OKT3): comparative antibody in the cytokine release assay (BioLegend Cat. No317326) [reference compound]
acceleration of cell growth in human peripheral blood mononuclear cells [1]: acceleration of cell growth
cytokine release (TNFα, INF-γ, IL-2, IL-6, IL-8, IL-10, MIP-1α) ([1]; human peripheral blood): acceleration of cytokine release

CNC(=O)c1cc(Oc2ccc(NC(=O)Nc3ccc(Cl)c(C(F)(F)F)c3)cc2)ccn1 [Sorafenib, sorafenib, reference compound]
Number of examples of complete tumor regression ([2]; 30 mg/kg): 0/5
tumor growth inhibition rate ([2]; 30 mg/kg): 18%
Average tumor volume ([2]; 30 mg/kg): 1425 mm^3
Number of examples of complete tumor regression ([2]; 90 mg/kg): 0/5
tumor growth inhibition rate ([2]; 90 mg/kg): 28%
Average tumor volume ([2]; 90 mg/kg): 1252 mm^3

B1: LN22R8: mouse anti-human CD147 monoclonal antibody, Mouse IgG3; light chain variable region SEQ ID NO: 8, heavy chain variable region SEQ ID NO: 10 (antibody, listed as Mus musculus, V domains shown)
VH: QIQLVQSGPELKKPGETVKISCKASGYTFTNYGMNWVKQAPGKGLKWMGWINTYTGEPTYADDFKGRFAFSLETSASTAYLQINNLKNEDTATYFCARGGYGNYGAGAMDYWGQGTSVTVSS
VL: DIQMTQSPSSLSASLGERVSLTCRASLEISGFLSWLQQKPDGTIKRLIYAASILDSGVPKRFSGSRSGSDYSLTISSLESEDFADYYCLQYASYPWTFGGGTKLEIKR
living cells (CDC activity, luminescence of non-treated cells = 100%) [3]: 41.1%
tumor growth inhibition rate ([4]; 10 mg/kg ip administration group, 48th day after the inoculation (final measurement date), NOD-scid mice): 50%
in vivo anti-tumor effect ([4]; antitumor efficacy of Example 1)-7 (PANC-1 xenograft, 10 mg/kg) as listed in Table 3): 50%
sensitivity of BxPC-3 tumor (in words) [5]: resistant
ADCC activity (in words) [6]: no ADCC activity
